The results in this text go back to publication PMC4072727, “Selection and Characterization of a DNA Aptamer That Can Discriminate between cJun/cJun and cJun/cFos”.

The target of series [1] is T1, cJun (cJun/cJun homodimer);cFos (in cJun/cFos heterodimer) (;, UniProt P05412;P01100 1-331;1-380, C269S|C154S). As to the kind of experiment: EMSA; higher affinity than cJun/cJun; EMSA: 100 mM KCl, 4 mM MgCl2, 20 mM Tris pH 7.9, 20 mM HEPES pH 7.9, 10% glycerol, 0.1 mM DTT, 60 ug/ml BSA, 0.06% NP-40, 50 ng poly(dI-dC), on ice; 50 pM 32P-D. Conditions: protein: recombinant;recombinant; tags: ;6His; copies: 1;1; label: 32P or 5'-Cy5; blunt.

Series [2] addresses T2, cJun (cJun/cJun homodimer) (UniProt P05412 1-331, C269S). As to the kind of experiment: EMSA; EMSA: 100 mM KCl, 4 mM MgCl2, 20 mM Tris pH 7.9, 20 mM HEPES pH 7.9, 10% glycerol, 0.1 mM DTT, 60 ug/ml BSA, 0.06% NP-40, 50 ng poly(dI-dC), on ice; 50 pM 32P-D. The conditions noted are these: protein: recombinant, chain copies: 2. A general note: Mobility shift assays separate free from complexed probe on a gel.

The target in series [3] is T2, cJun (cJun/cJun homodimer). As to the kind of experiment: DNase I footprinting; broad protection; EMSA: 100 mM KCl, 4 mM MgCl2, 20 mM Tris pH 7.9, 20 mM HEPES pH 7.9, 10% glycerol, 0.1 mM DTT, 60 ug/ml BSA, 0.06% NP-40, 50 ng poly(dI-dC), on ice; 50 pM 32P-D. Conditions: protein: recombinant; chain copies: 2; label: 32P; three stem-loops, nt 13-68.
For series [4], the target named is T2, cJun (cJun/cJun homodimer). The experiment in a line: competition; vs Cy5-labeled AP-1 DNA; EMSA: 100 mM KCl, 4 mM MgCl2, 20 mM Tris pH 7.9, 20 mM HEPES pH 7.9, 10% glycerol, 0.1 mM DTT, 60 ug/ml BSA, 0.06% NP-40, 50 ng poly(dI-dC), on ice; 50 pM 32P-D. The conditions noted are these: protein: recombinant; chain copies: 2; hairpin.
Series [5] has as its target T2, cJun (cJun/cJun homodimer). The experiment in a line: EMSA; 0.4-6.5 nM; low or sub-nanomolar; EMSA: 100 mM KCl, 4 mM MgCl2, 20 mM Tris pH 7.9, 20 mM HEPES pH 7.9, 10% glycerol, 0.1 mM DTT, 60 ug/ml BSA, 0.06% NP-40, 50 ng poly(dI-dC), on ice; 50 pM 32P-D. Conditions: protein: recombinant; chain copies: 2; label: 5'-FAM or 32P.
In series [6] the target is T1, cJun (cJun/cJun homodimer);cFos (in …). The experiment in a line: EMSA; 0.4-6.5 nM protein; EMSA: 100 mM KCl, 4 mM MgCl2, 20 mM Tris pH 7.9, 20 mM HEPES pH 7.9, 10% glycerol, 0.1 mM DTT, 60 ug/ml BSA, 0.06% NP-40, 50 ng poly(dI-dC), on ice; 50 pM 32P-D. Conditions: protein: recombinant;recombinant; tags: ;6His; copies: 1;1; label: 5'-FAM or 32P.

B1: AP-1 DNA (dsDNA)
DNA 1: AGGTCGTGACTCAGCGG
DNA 2: CCGCTGAGTCACGACCT
Usually Kd stands for the equilibrium constant for the complex coming apart. In the case of B1, the binding result in series [1] was “binds”. The dissociation constant Kd in series [2] (label: 32P or 5'-Cy5, blunt) was around 15 nM.

B2: aptamer-19(12-74) (structured_DNA)
DNA: TACGGCACCGTATAGTCGTACATGAACGAGTGTGAGTGTTAAGCCTTTGGCGACAGGGCTCGG
In the case of B2, the Kd in series [2] (label: 32P, three stem-loops, nt 13-68) turned out to be 0.5 nM.

B3: aptamer-19 (structured_DNA)
DNA: GGGAGATCACTTACGGCACCGTATAGTCGTACATGAACGAGTGTGAGTGTTAAGCCTTTGGCGACAGGGCTCGGAACC
Regarding B3, the binding result in series [3] is listed as “binds”.
For GTCCAAATCTCAGAAGAGACACACTCTTCTGAGATTTGGAC (structured_DNA) [mutant AP-1 decoy (hairpin)], the binding result in series [4] is on record as “no binding”.
Take GTCCATGACTCAGAAGAGACACACTCTTCTGAGTCATGGAC (structured_DNA) [AP-1 DNA decoy (hairpin)]: the binding result in series [4] is “binds”.

B4: aptamer-1 (structured_DNA)
DNA: GGGAGATCACTTACGGCACCAGTCGTCGTTACTGCATTGCTCTATGGAGTATAAGCCCTGCGACAGGGCTCGGAACC
Consider B4, for which the binding result is recorded as “binds” in series [5] and “no binding” in series [6].

B5: aptamer-27 (structured_DNA)
DNA: GGGAGATCACTTACGGCACCAACGTCTCGTTGGTCGTTCCAGCGTTCTAGATGGATTCAGGCGACAGGGCTCGGAACC
In the case of B5, the binding result is listed as “binds” in series [5] and “no binding” in series [6].

B6: aptamer-16 (structured_DNA)
DNA: GGGAGATCACTTACGGCACCCGGAGGGTCGTTACCCACTGTTTGTTGGTATAAAGCCTGGCGACAGGGCTCGGAACC
With B6, the binding result was “binds” in series [5] and “no binding” in series [6].
